# What was measured:
# CD71 apical domain [1] = biological target: T1, CD71 apical domain (UniProt P02786 189-383, limits assumed); experiment: solution ELISA, signal ratio to HSA
# T1 construct: domain: Apical domain
# [2] = biological target: T2, recombinant biotinylated human CD71 extracellular domain (human, UniProt P02786 89-760, biotinylated); experiment: solution ELISA, signal ratio to HSA
# T2 construct: extracellular domain; also called hCD71; huCD71 ECD
# CD71 apical domain [3] = biological target: T1, CD71 apical domain; experiment: solution ELISA
# [4] = biological target: T2, recombinant biotinylated human CD71 …; experiment: solution ELISA
# T2 sequence (P02786 other isoform, or with tags, fused parts or gaps): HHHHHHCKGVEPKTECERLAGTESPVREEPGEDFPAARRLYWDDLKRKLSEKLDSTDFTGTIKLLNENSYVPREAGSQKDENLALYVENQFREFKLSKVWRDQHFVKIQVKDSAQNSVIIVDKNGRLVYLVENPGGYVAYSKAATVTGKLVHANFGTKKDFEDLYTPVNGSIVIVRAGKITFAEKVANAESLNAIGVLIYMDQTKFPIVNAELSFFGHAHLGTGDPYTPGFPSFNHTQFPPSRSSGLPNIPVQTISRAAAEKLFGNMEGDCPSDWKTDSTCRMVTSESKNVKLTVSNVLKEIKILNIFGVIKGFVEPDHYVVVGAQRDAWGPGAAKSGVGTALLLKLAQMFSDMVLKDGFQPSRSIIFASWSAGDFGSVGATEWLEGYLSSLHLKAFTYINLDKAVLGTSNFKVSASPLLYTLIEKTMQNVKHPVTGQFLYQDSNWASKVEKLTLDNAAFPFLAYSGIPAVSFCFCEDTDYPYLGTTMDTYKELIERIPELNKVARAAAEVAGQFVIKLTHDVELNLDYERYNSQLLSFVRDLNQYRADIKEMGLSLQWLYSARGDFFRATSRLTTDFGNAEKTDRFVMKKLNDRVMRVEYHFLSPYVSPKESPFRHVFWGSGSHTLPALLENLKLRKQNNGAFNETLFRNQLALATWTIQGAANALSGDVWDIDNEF
# T1 sequence (P02786 189-383 limits assumed): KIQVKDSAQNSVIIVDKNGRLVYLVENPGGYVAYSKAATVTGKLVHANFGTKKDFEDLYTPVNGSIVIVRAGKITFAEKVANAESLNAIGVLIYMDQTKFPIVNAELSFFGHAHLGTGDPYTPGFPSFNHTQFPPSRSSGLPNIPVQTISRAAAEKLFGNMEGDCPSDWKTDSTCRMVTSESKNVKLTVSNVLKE
Binder,apical domain:HSA (CD71 apical domain [1]),hCD71:HSA [2],"Apical domain, RLU (CD71 apical domain [3])","hCD71, RLU [4]"
"SEQ ID NO 146 (designed binder, FN3 domain) MLPAPKNLVVSRVTEDSARLSWTAPDAAFDSFYIAYAEPRPDGEAITLHVPGSERSYDLTGLKPGTEYSVLIHGVKGGLLSSPLSAIFTT",337,63.7,5.72e+06 RLU,1.08e+06 RLU
"SEQ ID NO 171 (designed binder, FN3 domain) MLPAPKNLVVSRVTEDSARLSWTAPDAAFDSFYIAYAEPRPDGEAIQLWVPGSERSYDLTGLKPGTEYSVLIHGVKGGLLSSPLDAYFTT",296,35.3,5.48e+06 RLU,653000 RLU
"SEQ ID NO 148 (designed binder, FN3 domain) MLPAPKNLVVSRVTEDSARLSWTAPDAAFDSFYIAYAEPRPDGEAIALHVPGSERSYDLTGLKPGTEYSVLIHGVKGGLLSSPLRAVFTT",248,21.1,3.41e+06 RLU,290000 RLU
"SEQ ID NO 155 (designed binder, FN3 domain) MLPAPKNLVVSRVTEDSARLSWTAPDAAFDSFYIAYAEPRPDGEAIWLVVPGSERSYDLTGLKPGTEYSVLIHGVKGGLLSSPLHARFTT",263,27.7,4.86e+06 RLU,513000 RLU
"SEQ ID NO 170 (designed binder, FN3 domain) MLPAPKNLVVSRVTEDSARLSWTAPDAAFDSFYIAYAEPRPDGEAIHLLVPGSERSYDLTGLKPGTEYSVLIHGVKGGLLSSPLLAHFTT",117,19.6,4.86e+06 RLU,814000 RLU
"SEQ ID NO 164 (designed binder, FN3 domain) MLPAPKNLVVSRVTEDSARLSWTAPDAAFDSFYIAYAEPRPDGEAIILRVPGSERSYDLTGLKPGTEYSVLIHGVKGGLLSSPLVAIFTT",328,147,8.42e+06 RLU,3.78e+06 RLU
"SEQ ID NO 153 (designed binder, FN3 domain) MLPAPKNLVVSRVTEDSARLSWTAPDAAFDSFYIAYAEPRPDGEAIALHVPGSERSYDLTGLKPGTEYSVLIHGVKGGLLSSPLSAIFTT",186,16,3.96e+06 RLU,339000 RLU
"SEQ ID NO 158 (designed binder, FN3 domain) MLPAPKNLVVSRVTEDSARLSWTAPDAAFDSFYIAYAEPRPDGEAIILQVPGSERSYDLTGLKPGTEYSVLIHGVKGGLLSSPLSAVFTT",500,312,8.01e+06 RLU,4.99e+06 RLU
"SEQ ID NO 166 (designed binder, FN3 domain) MLPAPKNLVVSRVTEDSARLSWTAPDAAFDSFYIAYAEPRPDGEAIFLQVPGSERSYDLTGLKPGTEYSVLIHGVKGGLLSSPLNAFFTT",170,34,6.08e+06 RLU,1.22e+06 RLU
"SEQ ID NO 154 (designed binder, FN3 domain) MLPAPKNLVVSRVTEDSARLSWTAPDAAFDSFYIAYAEPRPDGEAIGLWVPGSERSYDLTGLKPGTEYSVLIHGVKGGLLSSPLIAHFTT",239,33.7,5.54e+06 RLU,779000 RLU
"SEQ ID NO 150 (designed binder, FN3 domain) MLPAPKNLVVSRVTEDSARLSRTAPDAAFDSFYIAYAEPRPDGEAIVLIVPGSERSYDLTGLKPGTEYSVLIHGVKGGLLSSPLSAIFTT",30.8,12.7,3.16e+06 RLU,1.3e+06 RLU
"SEQ ID NO 160 (designed binder, FN3 domain) MLPAPKNLVVSRVTEDSARLSWTAPDAAFDSFYIAYAEPRPDGEAIVLTVPGSERSYDLTGLKPGTEYSVLIHGVKGGLLSSPLLAYFTT",378,203,8.31e+06 RLU,4.46e+06 RLU
"SEQ ID NO 169 (designed binder, FN3 domain) MLPAPKNLVVSRVTEDSARLSWTAPDAAFDSFYIAYAEPRPDGEAILLLVPGSERSYDLTGLKPGTEYSVLIHGVKGGLLSSPLSAVFTT",420,241,7.21e+06 RLU,4.14e+06 RLU
"SEQ ID NO 156 (designed binder, FN3 domain) MLPAPKNLVVSRVTEDSARLSWTAPDAAFDSFYIAYAEPRPDGEAIFLQVPGSERSYDLTGLKPGTEYSVLIHGVKGGLLSSPLAAVFTT",286,104,6.71e+06 RLU,2.46e+06 RLU
"SEQ ID NO 147 (designed binder, FN3 domain) MLPAPKNLVVSRVTEDSARLSWTAPDAAFDSFYIAYAEPRPDGEAIVLEVPGSERSYDLTGLKPGTEYSVLIHGVKGGLLSSPLDAHFTT",478,204,6.89e+06 RLU,2.94e+06 RLU
"SEQ ID NO 159 (designed binder, FN3 domain) MLPAPKNLVVSRVTEDSARLSWTAPDAAFDSFYIAYAEPRPDGEAIYLKVPGSERSYDLTGLKPGTEYSVLIHGVKGGLLSSPLVAHFTT",345,14.4,4.43e+06 RLU,185000 RLU
"SEQ ID NO 152 (designed binder, FN3 domain) MLPAPKNLVVSRVTEDSARLSWTAPDAAFDSFYIAYAEPRPDGEAITLDVPGSERSYDLTGLKPGTEYSVLIHGVKGGLLSSPLYAFFTT",359,55.4,4.96e+06 RLU,764000 RLU
"SEQ ID NO 157 (designed binder, FN3 domain) MLPAPKNLVVSRVTEDSARLSWTAPDAAFDSFYIAYAEPRPDGEAILLHVPGSERSYDLTGLKPGTEYSVLIHGVKGGLLSSPLSAISTT",194,94.9,7.39e+06 RLU,3.61e+06 RLU
"SEQ ID NO 167 (designed binder, FN3 domain) MLPAPKNLVVSRVTEDSARLSWTAPDAAFDSFFIGYLEPQPPGEAIILGVPGSERSYDLTGLKPGTEYSVLIHGVKGGLLSSPLHAYSTT",0.7,23.2,128000 RLU,4.17e+06 RLU
"SEQ ID NO 165 (designed binder, FN3 domain) MLPAPKNLVVSRVTEDSARLSWTAPDAAFDSFYIAYAEPRPDGEAIVLQVPGSERSYDLTGLKPGTEYSVLIHGVKGGLLSSPLAAWFTT",299,175,8.37e+06 RLU,4.91e+06 RLU
"SEQ ID NO 149 (designed binder, FN3 domain) MLPAPKNLVVSRVTEDSARLSWTAPDAAFDSFYIAYAEPRPDGEAIQLWVPGSERSYDLTGLKPGTEYSVLIHGVKGGLLSSPLSAIFTT",361,91.2,6.16e+06 RLU,1.56e+06 RLU
